{"source": "patent US20150079112A1", "about": "(SAMSUNG ELECTRONICS, published 2015)", "binders": {"B1": {"name": "SAIT-ANG2-AB-m10D6 (antibody, V domains shown)", "VH": "DVQLQESGPGLVKPSQSLSLTCTVTGYSITSDYAWNWIRQFPGNKLEWMGYINYSGNTDYNPSLKSRSSITRDTSKNQFFLQLNSVTTGDTATYYCARGNFEGAMDYWGQGTSVTVSS", "VL": "SIVMTQTPKFLLVSAGDRVTITCKASQSVSNDVAWYQQKPGQSPKLLIYYASNRYPGVPDRFTGSGYGTDFTFTISTVQAEDLAVYFCQQDYSSPWTFGGGTKLEIK", "notes": "also called antibody 10D6; anti-Ang2 antibody (10D6)"}}, "test_in_all_cases": "ELISA, coated antibody 1000 nM, 250 ng FLAG-tagged mutant Ang2, anti-FLAG-HRP, OD450", "key": {"[1]": {"molecular_target": "T1, mutant Ang2 protein, D448 substituted with alanine, FLAG-tagged at its N-terminal (human, UniProt O15123 19-496, limits assumed)", "T1 sequence": "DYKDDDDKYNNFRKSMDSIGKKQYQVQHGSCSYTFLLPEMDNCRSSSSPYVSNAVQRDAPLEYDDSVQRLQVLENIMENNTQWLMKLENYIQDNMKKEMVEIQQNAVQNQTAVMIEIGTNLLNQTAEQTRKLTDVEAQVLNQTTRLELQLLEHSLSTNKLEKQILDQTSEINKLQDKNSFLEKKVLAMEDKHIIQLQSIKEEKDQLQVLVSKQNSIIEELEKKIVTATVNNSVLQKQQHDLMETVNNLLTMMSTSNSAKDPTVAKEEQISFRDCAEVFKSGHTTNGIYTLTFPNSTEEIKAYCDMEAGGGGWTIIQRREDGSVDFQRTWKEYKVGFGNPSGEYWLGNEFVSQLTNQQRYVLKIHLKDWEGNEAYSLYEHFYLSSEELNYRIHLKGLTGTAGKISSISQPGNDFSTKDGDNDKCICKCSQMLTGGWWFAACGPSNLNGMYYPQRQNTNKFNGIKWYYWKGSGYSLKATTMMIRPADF", "method": "(§1) Each well of a 96-well MaxiSorp™ flat-bottom plate (Nunc) was coated with 50 ul (microliter) of 1000 nM antibody. Then, the plate was washed five times with 0.05% (v/v) Tween-20-containing PBS (PBST) and blocked with 1% (v/v) BSA-containing PBS at a room temperature for 2 hours. 250 ng of each mutant Ang2 protein obtained by substituting S417, Q418, P419, N421, I434, D448, A449, P452, Y460, N467, K468, or F469 residue of Ang2 protein tagged with a FLAG sequence ([…], Sigma) at its N-terminal with alanine was added to each well of the plate, which was then allowed to react at a room temperature for 2 hours.\n(§2) The plate was washed five times with 0.05% (v/v) Tween-20 containing PBS, reacted with an anti-FLAG antibody (SIGMA) conjugated with HRP which was diluted in 1% (v/v) BSA-containing PBS at a ratio of 1:5,000 (v/v) at a room temperature for 1 hour, and washed five times with 0.1% (v/v) Tween-20-containing PBS.\n(§3) Finally, 50 ul of TMB substrates (Cell signaling) was added to each well of the plate to induce color development at a room temperature for 3 min. and the reaction was ceased by the addition of 50 ul of Stop solution (Cell signaling) and then, OD450 values were measured on a plate reader (Molecular Devices). By comparing binding affinities with mutated Ang2 to those of unmutated Ang2, each epitope of Ang2 antibodies was identified. The thus obtained measurement results of the binding affinities (%) with mutant Ang2 against the binding affinity with the native Ang2 are shown in the following Table 8."}, "[2]": {"molecular_target": "T2, mutant Ang2 protein, N467 substituted with alanine, FLAG-tagged at its N-terminal (human, UniProt O15123 19-496, limits assumed)", "T2 sequence": "T1 sequence with A438D, N457A", "method": "as §1, §2, §3"}, "[3]": {"molecular_target": "T3, mutant Ang2 protein, N421 substituted with alanine, FLAG-tagged at its N-terminal (human, UniProt O15123 19-496, limits assumed)", "T3 sequence": "T1 sequence with N411A, A438D", "method": "as §1, §2, §3"}, "[4]": {"molecular_target": "T4, mutant Ang2 protein, I434 substituted with alanine, FLAG-tagged at its N-terminal (human, UniProt O15123 19-496, limits assumed)", "T4 sequence": "T1 sequence with I424A, A438D", "method": "as §1, §2, §3"}}, "note": "Where a chain is given by its changes, count along the chain named.", "data": [{"binder": "B1", "values": [{"measurement": "binding affinity (%) with mutant Ang2 against the binding affinity with the native Ang2", "setting": "[1]", "value": 105, "unit": "%"}, {"measurement": "binding affinity (%) with mutant Ang2 against the binding affinity with the native Ang2", "setting": "[2]", "value": 107, "unit": "%"}, {"measurement": "binding affinity (%) with mutant Ang2 against the binding affinity with the native Ang2", "setting": "[3]", "value": 109, "unit": "%"}, {"measurement": "binding affinity (%) with mutant Ang2 against the binding affinity with the native Ang2", "setting": "[4]", "value": 109, "unit": "%"}]}]}
